Laboratory results taken from patent US20240270846A1 (published 2024).

Target: T1, CD3 epsilon homodimer protein (UniProt P07766 23-126)
T1 construct: also called CD3 (CD3 epsilon)
Assay: SPR Biacore T200, antibody over immobilised CD3e homodimer;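 note: CD3 epsilon homodimer amine-coupled on a CM4 chip, run at 25 °C in HBS-EP+, Z = bound amount of each single-residue H chain variant over that of the parent antibody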

T1 sequence (P07766 23-126): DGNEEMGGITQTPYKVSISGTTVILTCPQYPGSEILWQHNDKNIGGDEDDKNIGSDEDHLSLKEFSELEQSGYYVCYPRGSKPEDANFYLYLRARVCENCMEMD

ratio of amounts bound (Z=Y/X vs CE115HA000) | Binder
0.1 | CE115HA000 W33A one-arm antibody (antibody, human IgG1, kappa, L234A L235A, N297A, name in Kabat numbering, one-arm antibody) heavy: QVQLVESGGGVVQPGRSLRLSCAASGFTFSNAAMHWVRQAPGKGLEWVAQIKAKSNNYATYYAESVKGRFTISRDDSKNSLYLQMNSLKTEDTAVYYCRYVHYGAYYGVDAWGQGTTVTVSSASTKGPSVFPLAPSSKSTSGGTAALGCLVKDYFPEPVTVSWNSGALTSGVHTFPAVLQSSGLYSLSSVVTVPSSSLGTQTYICNVNHKPSNTKVDKKVEPKSCDKTHTCPPCPAPEAAGGPSVFLFPPKPKDTLMISRTPEVTCVVVDVSHEDPEVKFNWYVDGVEVHNAKTKPREEQYASTYRVVSVLTVLHQDWLNGKEYKCKVSNKALPAPIEKTISKAKGQPREPQVYTLPPSRCELTKNQVSLSCAVKGFYPSDIAVEWESNGQPENNYKTTPPVLDSDGSFFLVSKLTVDKSRWQQGNVFSCSVMHEALHNHYTQKSLSLSPDYKDDDDK EPKSSDKTHTCPPCPAPELLGGPSVFLFPPKPKDTLMISRTPEVTCVVVDVSHEDPEVKFNWYVDGVEVHNAKTKPREEQYNSTYRVVSVLTVLHQDWLNGKEYKCKVSNKALPAPIEKTISKAKGQPREPQVCTLPPSRDELTKNQVSLWCLVKGFYPSDIAVEWESNGQPENNYKTTPPVLDSDGSFFLYSKLTVDKSRWQQGNVFSCSVMHEALHNRYTQKSLSLSP light: DIVMTQSPLSLPVTPGEPASISCRSSQSLVHSNRNTYLHWYQQKPGQAPRLLIYKVSNRFSGVPDRFSGSGSGTDFTLKISRVEAEDVGVYYCGQGTQVPYTFGQGTKLEIKRTVAAPSVFIFPPSDEQLKSGTASVVCLLNNFYPREAKVQWKVDNALQSGNSQESVTEQDSKDSTYSLSSTLTLSKADYEKHKVYACEVTHQGLSSPVTKSFNRGEC
0.1 | CE115HA000 W33L one-arm antibody (antibody, human IgG1, kappa, L234A L235A, N297A, name in Kabat numbering, one-arm antibody) heavy: QVQLVESGGGVVQPGRSLRLSCAASGFTFSNALMHWVRQAPGKGLEWVAQIKAKSNNYATYYAESVKGRFTISRDDSKNSLYLQMNSLKTEDTAVYYCRYVHYGAYYGVDAWGQGTTVTVSSASTKGPSVFPLAPSSKSTSGGTAALGCLVKDYFPEPVTVSWNSGALTSGVHTFPAVLQSSGLYSLSSVVTVPSSSLGTQTYICNVNHKPSNTKVDKKVEPKSCDKTHTCPPCPAPEAAGGPSVFLFPPKPKDTLMISRTPEVTCVVVDVSHEDPEVKFNWYVDGVEVHNAKTKPREEQYASTYRVVSVLTVLHQDWLNGKEYKCKVSNKALPAPIEKTISKAKGQPREPQVYTLPPSRCELTKNQVSLSCAVKGFYPSDIAVEWESNGQPENNYKTTPPVLDSDGSFFLVSKLTVDKSRWQQGNVFSCSVMHEALHNHYTQKSLSLSPDYKDDDDK EPKSSDKTHTCPPCPAPELLGGPSVFLFPPKPKDTLMISRTPEVTCVVVDVSHEDPEVKFNWYVDGVEVHNAKTKPREEQYNSTYRVVSVLTVLHQDWLNGKEYKCKVSNKALPAPIEKTISKAKGQPREPQVCTLPPSRDELTKNQVSLWCLVKGFYPSDIAVEWESNGQPENNYKTTPPVLDSDGSFFLYSKLTVDKSRWQQGNVFSCSVMHEALHNRYTQKSLSLSP light: DIVMTQSPLSLPVTPGEPASISCRSSQSLVHSNRNTYLHWYQQKPGQAPRLLIYKVSNRFSGVPDRFSGSGSGTDFTLKISRVEAEDVGVYYCGQGTQVPYTFGQGTKLEIKRTVAAPSVFIFPPSDEQLKSGTASVVCLLNNFYPREAKVQWKVDNALQSGNSQESVTEQDSKDSTYSLSSTLTLSKADYEKHKVYACEVTHQGLSSPVTKSFNRGEC
0.65 | CE115HA000 W33F one-arm antibody (antibody, human IgG1, kappa, L234A L235A, N297A, name in Kabat numbering, one-arm antibody) heavy: QVQLVESGGGVVQPGRSLRLSCAASGFTFSNAFMHWVRQAPGKGLEWVAQIKAKSNNYATYYAESVKGRFTISRDDSKNSLYLQMNSLKTEDTAVYYCRYVHYGAYYGVDAWGQGTTVTVSSASTKGPSVFPLAPSSKSTSGGTAALGCLVKDYFPEPVTVSWNSGALTSGVHTFPAVLQSSGLYSLSSVVTVPSSSLGTQTYICNVNHKPSNTKVDKKVEPKSCDKTHTCPPCPAPEAAGGPSVFLFPPKPKDTLMISRTPEVTCVVVDVSHEDPEVKFNWYVDGVEVHNAKTKPREEQYASTYRVVSVLTVLHQDWLNGKEYKCKVSNKALPAPIEKTISKAKGQPREPQVYTLPPSRCELTKNQVSLSCAVKGFYPSDIAVEWESNGQPENNYKTTPPVLDSDGSFFLVSKLTVDKSRWQQGNVFSCSVMHEALHNHYTQKSLSLSPDYKDDDDK EPKSSDKTHTCPPCPAPELLGGPSVFLFPPKPKDTLMISRTPEVTCVVVDVSHEDPEVKFNWYVDGVEVHNAKTKPREEQYNSTYRVVSVLTVLHQDWLNGKEYKCKVSNKALPAPIEKTISKAKGQPREPQVCTLPPSRDELTKNQVSLWCLVKGFYPSDIAVEWESNGQPENNYKTTPPVLDSDGSFFLYSKLTVDKSRWQQGNVFSCSVMHEALHNRYTQKSLSLSP light: DIVMTQSPLSLPVTPGEPASISCRSSQSLVHSNRNTYLHWYQQKPGQAPRLLIYKVSNRFSGVPDRFSGSGSGTDFTLKISRVEAEDVGVYYCGQGTQVPYTFGQGTKLEIKRTVAAPSVFIFPPSDEQLKSGTASVVCLLNNFYPREAKVQWKVDNALQSGNSQESVTEQDSKDSTYSLSSTLTLSKADYEKHKVYACEVTHQGLSSPVTKSFNRGEC
0.66 | CE115HA000 W33Y one-arm antibody (antibody, human IgG1, kappa, L234A L235A, N297A, name in Kabat numbering, one-arm antibody) heavy: QVQLVESGGGVVQPGRSLRLSCAASGFTFSNAYMHWVRQAPGKGLEWVAQIKAKSNNYATYYAESVKGRFTISRDDSKNSLYLQMNSLKTEDTAVYYCRYVHYGAYYGVDAWGQGTTVTVSSASTKGPSVFPLAPSSKSTSGGTAALGCLVKDYFPEPVTVSWNSGALTSGVHTFPAVLQSSGLYSLSSVVTVPSSSLGTQTYICNVNHKPSNTKVDKKVEPKSCDKTHTCPPCPAPEAAGGPSVFLFPPKPKDTLMISRTPEVTCVVVDVSHEDPEVKFNWYVDGVEVHNAKTKPREEQYASTYRVVSVLTVLHQDWLNGKEYKCKVSNKALPAPIEKTISKAKGQPREPQVYTLPPSRCELTKNQVSLSCAVKGFYPSDIAVEWESNGQPENNYKTTPPVLDSDGSFFLVSKLTVDKSRWQQGNVFSCSVMHEALHNHYTQKSLSLSPDYKDDDDK EPKSSDKTHTCPPCPAPELLGGPSVFLFPPKPKDTLMISRTPEVTCVVVDVSHEDPEVKFNWYVDGVEVHNAKTKPREEQYNSTYRVVSVLTVLHQDWLNGKEYKCKVSNKALPAPIEKTISKAKGQPREPQVCTLPPSRDELTKNQVSLWCLVKGFYPSDIAVEWESNGQPENNYKTTPPVLDSDGSFFLYSKLTVDKSRWQQGNVFSCSVMHEALHNRYTQKSLSLSP light: DIVMTQSPLSLPVTPGEPASISCRSSQSLVHSNRNTYLHWYQQKPGQAPRLLIYKVSNRFSGVPDRFSGSGSGTDFTLKISRVEAEDVGVYYCGQGTQVPYTFGQGTKLEIKRTVAAPSVFIFPPSDEQLKSGTASVVCLLNNFYPREAKVQWKVDNALQSGNSQESVTEQDSKDSTYSLSSTLTLSKADYEKHKVYACEVTHQGLSSPVTKSFNRGEC
0.13 | CE115HA000 W33H one-arm antibody (antibody, human IgG1, kappa, L234A L235A, N297A, name in Kabat numbering, one-arm antibody) heavy: QVQLVESGGGVVQPGRSLRLSCAASGFTFSNAHMHWVRQAPGKGLEWVAQIKAKSNNYATYYAESVKGRFTISRDDSKNSLYLQMNSLKTEDTAVYYCRYVHYGAYYGVDAWGQGTTVTVSSASTKGPSVFPLAPSSKSTSGGTAALGCLVKDYFPEPVTVSWNSGALTSGVHTFPAVLQSSGLYSLSSVVTVPSSSLGTQTYICNVNHKPSNTKVDKKVEPKSCDKTHTCPPCPAPEAAGGPSVFLFPPKPKDTLMISRTPEVTCVVVDVSHEDPEVKFNWYVDGVEVHNAKTKPREEQYASTYRVVSVLTVLHQDWLNGKEYKCKVSNKALPAPIEKTISKAKGQPREPQVYTLPPSRCELTKNQVSLSCAVKGFYPSDIAVEWESNGQPENNYKTTPPVLDSDGSFFLVSKLTVDKSRWQQGNVFSCSVMHEALHNHYTQKSLSLSPDYKDDDDK EPKSSDKTHTCPPCPAPELLGGPSVFLFPPKPKDTLMISRTPEVTCVVVDVSHEDPEVKFNWYVDGVEVHNAKTKPREEQYNSTYRVVSVLTVLHQDWLNGKEYKCKVSNKALPAPIEKTISKAKGQPREPQVCTLPPSRDELTKNQVSLWCLVKGFYPSDIAVEWESNGQPENNYKTTPPVLDSDGSFFLYSKLTVDKSRWQQGNVFSCSVMHEALHNRYTQKSLSLSP light: DIVMTQSPLSLPVTPGEPASISCRSSQSLVHSNRNTYLHWYQQKPGQAPRLLIYKVSNRFSGVPDRFSGSGSGTDFTLKISRVEAEDVGVYYCGQGTQVPYTFGQGTKLEIKRTVAAPSVFIFPPSDEQLKSGTASVVCLLNNFYPREAKVQWKVDNALQSGNSQESVTEQDSKDSTYSLSSTLTLSKADYEKHKVYACEVTHQGLSSPVTKSFNRGEC
0.1 | CE115HA000 W33D one-arm antibody (antibody, human IgG1, kappa, L234A L235A, N297A, name in Kabat numbering, one-arm antibody) heavy: QVQLVESGGGVVQPGRSLRLSCAASGFTFSNADMHWVRQAPGKGLEWVAQIKAKSNNYATYYAESVKGRFTISRDDSKNSLYLQMNSLKTEDTAVYYCRYVHYGAYYGVDAWGQGTTVTVSSASTKGPSVFPLAPSSKSTSGGTAALGCLVKDYFPEPVTVSWNSGALTSGVHTFPAVLQSSGLYSLSSVVTVPSSSLGTQTYICNVNHKPSNTKVDKKVEPKSCDKTHTCPPCPAPEAAGGPSVFLFPPKPKDTLMISRTPEVTCVVVDVSHEDPEVKFNWYVDGVEVHNAKTKPREEQYASTYRVVSVLTVLHQDWLNGKEYKCKVSNKALPAPIEKTISKAKGQPREPQVYTLPPSRCELTKNQVSLSCAVKGFYPSDIAVEWESNGQPENNYKTTPPVLDSDGSFFLVSKLTVDKSRWQQGNVFSCSVMHEALHNHYTQKSLSLSPDYKDDDDK EPKSSDKTHTCPPCPAPELLGGPSVFLFPPKPKDTLMISRTPEVTCVVVDVSHEDPEVKFNWYVDGVEVHNAKTKPREEQYNSTYRVVSVLTVLHQDWLNGKEYKCKVSNKALPAPIEKTISKAKGQPREPQVCTLPPSRDELTKNQVSLWCLVKGFYPSDIAVEWESNGQPENNYKTTPPVLDSDGSFFLYSKLTVDKSRWQQGNVFSCSVMHEALHNRYTQKSLSLSP light: DIVMTQSPLSLPVTPGEPASISCRSSQSLVHSNRNTYLHWYQQKPGQAPRLLIYKVSNRFSGVPDRFSGSGSGTDFTLKISRVEAEDVGVYYCGQGTQVPYTFGQGTKLEIKRTVAAPSVFIFPPSDEQLKSGTASVVCLLNNFYPREAKVQWKVDNALQSGNSQESVTEQDSKDSTYSLSSTLTLSKADYEKHKVYACEVTHQGLSSPVTKSFNRGEC
